Measurements published in US20200172619A1 (UNIVERSIT T STUTTGART, published 2020).
Where two headings read alike, the source gives them in different places.

Assays:
Her3-Fc fusion protein = target: T1, Her3-Fc fusion protein (human, UniProt P21860 20-643); test: ELISA, immobilized Her3-Fc fusion protein
T1 construct: also called immobilized Her3-Fc fusion protein; not shown: Fc part not described

[1] = target: MCSP (melanoma-associated chondroitin sulfate proteoglycan) on WM35 cells (human, UniProt Q6UVK1 30-2322); test: cell-based or functional assay
[2] = target: T2, TNFR1 on the surface of cells (HT1080, HeLa, Kym-1) (human, UniProt P19438 30-455); test: cell-based or functional assay
T2 sequence (looked up): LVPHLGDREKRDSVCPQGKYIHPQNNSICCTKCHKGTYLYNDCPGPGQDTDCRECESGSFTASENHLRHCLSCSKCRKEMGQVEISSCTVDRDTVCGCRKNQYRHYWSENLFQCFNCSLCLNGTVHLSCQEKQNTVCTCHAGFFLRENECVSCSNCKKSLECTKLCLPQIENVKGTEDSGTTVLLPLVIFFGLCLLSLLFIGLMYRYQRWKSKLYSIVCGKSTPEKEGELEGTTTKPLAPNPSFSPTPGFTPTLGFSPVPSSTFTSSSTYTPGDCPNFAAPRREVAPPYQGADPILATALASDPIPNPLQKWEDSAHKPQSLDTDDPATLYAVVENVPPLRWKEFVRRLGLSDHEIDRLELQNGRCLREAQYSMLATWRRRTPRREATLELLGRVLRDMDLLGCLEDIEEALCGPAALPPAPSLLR

[3] = target: T2, TNFR1 on the surface of cells (HT1080, …); test: cell-based or functional assay; remark: listed apart in the source
[4] = target: T3, human TNFR1-Fc fusion protein (human, UniProt P19438 30-211); test: ELISA, immobilized human TNFR1-Fc
T3 construct: Provided by Baliopharm AG; Coated at 1 ug/ml in the ELISA; also called huTNFR1-Fc; immobilized human TNFR1; not shown: Fc part not described
T3 sequence (looked up): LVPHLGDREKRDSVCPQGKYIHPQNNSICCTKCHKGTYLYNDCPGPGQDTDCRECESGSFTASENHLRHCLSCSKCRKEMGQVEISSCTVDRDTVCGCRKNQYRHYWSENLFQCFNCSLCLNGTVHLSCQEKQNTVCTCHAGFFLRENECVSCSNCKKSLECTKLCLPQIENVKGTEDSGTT
Protocol: Microtiter plates were coated with 100 μl of TNFFR1-Fc fusion protein (1 μg/ml in PBS) and incubated at 4° C. overnight.

[5] = target: T3, human TNFR1-Fc fusion protein; test: ELISA, immobilized human TNFR1-Fc; remark: listed apart in the source
Protocol: (§1) Microtiter plates were coated with 100 μl of TNFFR1-Fc fusion protein (1 μg/ml in PBS) and incubated at 4° C. overnight. The residual binding sites were blocked with 2% MPBS (skim milk in PBS, 200 μl per well) at room temperature for 2 hours and subsequently washed twice with PBS. 100 μl of the samples diluted in 2% MPBS were incubated at room temperature for 1 hour prior to the last incubation step with 100 μl of the HRP conjugated detection antibodies in 2% MPBS. Bound protein was detected with 100 μl TMB substrate solution, the HRP-reaction was stopped by the addition of 50 μl 1 M H2SO4 and the absorption at the wavelength of 450 nm was measured using the Infinite microtiter plate reader (TECAN, Maennedorf, Switzerland). Between each incubation step and in advance of the detection, the plates were washed three times with PBST and twice with PBS.

[6] = target: T2, TNFR1 on the surface of cells (HT1080, …); test: cell-based or functional assay; remark: listed apart in the source
[7] = target: T3, human TNFR1-Fc fusion protein; test: ELISA, immobilized human TNFR1-Fc; remark: listed apart in the source
[8] = target: T2, TNFR1 on the surface of cells (HT1080, …); test: cell-based or functional assay; remark: listed apart in the source
[9] = target: T3, human TNFR1-Fc fusion protein; test: ELISA, human TNFR1-Fc
Protocol: as §1

Sequence of MCSP (melanoma-associated chondroitin sulfate proteoglycan) on WM35 cells (Q6UVK1 30-2322): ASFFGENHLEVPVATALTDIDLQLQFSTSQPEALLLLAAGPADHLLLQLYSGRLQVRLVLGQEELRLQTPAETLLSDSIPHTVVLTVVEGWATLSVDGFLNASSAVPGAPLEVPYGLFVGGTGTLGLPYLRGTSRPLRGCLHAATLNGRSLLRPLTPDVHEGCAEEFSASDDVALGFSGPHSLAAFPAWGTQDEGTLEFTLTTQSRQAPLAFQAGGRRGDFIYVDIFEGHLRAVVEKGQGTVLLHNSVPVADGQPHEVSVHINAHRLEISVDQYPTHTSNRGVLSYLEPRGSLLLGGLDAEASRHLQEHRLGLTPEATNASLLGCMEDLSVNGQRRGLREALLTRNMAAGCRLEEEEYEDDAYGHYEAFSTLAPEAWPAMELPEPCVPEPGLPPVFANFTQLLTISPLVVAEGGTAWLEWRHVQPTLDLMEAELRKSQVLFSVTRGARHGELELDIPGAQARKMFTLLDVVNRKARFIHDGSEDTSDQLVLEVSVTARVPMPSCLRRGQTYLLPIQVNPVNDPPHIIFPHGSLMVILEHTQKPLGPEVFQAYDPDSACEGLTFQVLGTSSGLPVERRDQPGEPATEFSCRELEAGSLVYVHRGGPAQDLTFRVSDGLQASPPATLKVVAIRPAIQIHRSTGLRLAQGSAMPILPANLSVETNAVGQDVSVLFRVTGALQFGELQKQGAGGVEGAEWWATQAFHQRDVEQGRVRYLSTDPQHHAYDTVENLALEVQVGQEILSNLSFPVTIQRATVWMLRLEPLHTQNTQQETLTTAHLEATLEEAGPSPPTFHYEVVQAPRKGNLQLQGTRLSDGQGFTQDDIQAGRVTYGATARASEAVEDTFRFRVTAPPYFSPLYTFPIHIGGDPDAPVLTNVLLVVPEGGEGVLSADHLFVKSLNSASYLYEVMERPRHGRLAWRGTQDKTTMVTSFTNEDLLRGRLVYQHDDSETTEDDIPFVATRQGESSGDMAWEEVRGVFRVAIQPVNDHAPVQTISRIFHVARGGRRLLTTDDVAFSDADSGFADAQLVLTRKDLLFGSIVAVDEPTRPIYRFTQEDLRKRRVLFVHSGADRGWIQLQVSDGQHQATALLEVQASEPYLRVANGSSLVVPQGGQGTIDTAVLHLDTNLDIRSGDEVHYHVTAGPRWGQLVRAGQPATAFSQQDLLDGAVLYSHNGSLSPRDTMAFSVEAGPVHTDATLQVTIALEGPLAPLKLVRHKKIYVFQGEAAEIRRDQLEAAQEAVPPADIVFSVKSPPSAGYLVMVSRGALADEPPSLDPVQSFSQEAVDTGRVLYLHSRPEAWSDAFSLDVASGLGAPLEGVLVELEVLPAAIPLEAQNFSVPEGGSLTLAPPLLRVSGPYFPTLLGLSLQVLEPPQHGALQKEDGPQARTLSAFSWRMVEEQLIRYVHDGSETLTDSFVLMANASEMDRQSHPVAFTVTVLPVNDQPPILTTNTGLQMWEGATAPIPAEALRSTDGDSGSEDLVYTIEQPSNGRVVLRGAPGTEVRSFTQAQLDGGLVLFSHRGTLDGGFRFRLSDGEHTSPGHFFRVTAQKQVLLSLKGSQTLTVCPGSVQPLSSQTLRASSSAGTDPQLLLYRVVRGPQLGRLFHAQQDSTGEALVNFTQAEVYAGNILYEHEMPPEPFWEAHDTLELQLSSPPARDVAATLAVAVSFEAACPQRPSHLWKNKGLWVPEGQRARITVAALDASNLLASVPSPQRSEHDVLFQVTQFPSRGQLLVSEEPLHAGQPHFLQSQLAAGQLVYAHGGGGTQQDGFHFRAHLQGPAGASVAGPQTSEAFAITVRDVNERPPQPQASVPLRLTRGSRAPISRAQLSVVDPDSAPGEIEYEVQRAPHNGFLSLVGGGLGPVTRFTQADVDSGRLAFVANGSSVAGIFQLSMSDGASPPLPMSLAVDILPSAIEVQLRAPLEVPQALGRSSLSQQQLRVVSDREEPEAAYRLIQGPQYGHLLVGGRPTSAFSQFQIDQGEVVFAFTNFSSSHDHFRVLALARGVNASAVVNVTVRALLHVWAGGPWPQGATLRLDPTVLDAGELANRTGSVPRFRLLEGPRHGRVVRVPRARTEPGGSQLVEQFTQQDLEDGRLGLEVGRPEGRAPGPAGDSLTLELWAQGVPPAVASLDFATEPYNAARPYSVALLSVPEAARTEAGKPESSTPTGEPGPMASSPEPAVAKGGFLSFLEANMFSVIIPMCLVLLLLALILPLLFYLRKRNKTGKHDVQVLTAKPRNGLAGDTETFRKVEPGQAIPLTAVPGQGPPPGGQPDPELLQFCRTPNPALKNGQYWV

B1: Her3N-CD3C-hFc1k (bispecific antibody)
chain 1: QVQLQQSGPGLVKPSQTLSLTCAISGDSVSSNRAAWNWIRQSPSRGLEWLGRTYYRSKWYNDYAQSLKSRITINPDTPKNQFSLQLNSVTPEDTAVYYCARDGQLGLDALDIWGQGTMVTVSSGGGGSGGGGSGGGGSQAGLTQPPAVSVAPGQTASITCGRDNIGSRSVHWYQQKPGQAPVLVVYDDSDRPAGIPERFSGSNYENTATLTISRVEAGDEADYYCQVWGITSDHVVFGGGTKLTVLAAADKTHTCPPCPAPPVAGPSVFLFPPKPKDTLMISRTPEVTCVVVDVSHEDPEVKFNWYVDGVEVHNAKTKPREEQYNSTYRVVSVLTVLHQDWLNGKEYKCKVSNKGLPSSIEKTISKAKGQPREPSVFPLAPSSKSTSGGTAALGCLVKDYFPSDIAVEWESGALTSGVHTFPAVLQSSGLYSLSSVVTVPSSSLGTQTYSCSVMHEALHNHYTQKSVEPKSC
chain 2: DKTHTCPPCPAPPVAGPSVFLFPPKPKDTLMISRTPEVTCVVVDVSHEDPEVKFNWYVDGVEVHNAKTKPREEQYNSTYRVVSVLTVLHQDWLNGKEYKCKVSNKGLPSSIEKTISKAKGQPREPSVFIFPPSDEQLKSGTASVVCLVNNFYPRDIAVEWEVDNALQSGNSQESVTEQDSKDSTYSLSSTLTLSKADYEKHKVYSCSVMHEALHNHYTQKSFNRGECGGGGSGGGGSGGGGSGTDIQMTQSPSSLSASVGDRVTITCRASQDIRNYLNWYQQKPGKAPKLLIYYTSRLHSGVPSRFSGSGSGTDFTFTISSLQPEDIATYYCQQGNTLPWTFGQGTKLEIKRGGGGSGGGGSGGGGSQVQLVQSGAEVKKPGSSVKVSCKASGGTFSGYTMNWVRQAPGQGLEWMGLINPYKGVSTYNGKFKDRVTITADKSTSTAYMELSSLRSEDTAVYYCARSGYYGDSDWYFDVWGQGTLVTVSS
Q: How did the EC50 (Her3-Fc fusion protein) turn out when B1 was run?
A: 0.1 nM

B2: MCSPN-CD3N-hFc1k (bispecific antibody)
chain 1: QVQLVQSGAEVKKPGASVKVSCKASGYTFTRSWMNWVRQAPGQGLEWMGRIYPGDGDTNYNGKFKGRVTMTRDTSTSTVYMELSSLRSEDTAVYYCARGNTVVVPYTMDYWGQGTTVTVSSGGGGSGGGGSGGGGSDIQMTQSPSSLSASVGDRVTITCRASESVDSYGNSFMHWYQQKPGKAPKLLIYLASNLESGVPSRFSGSGSGTDFTLTISSLQPEDFATYYCQQNNEDPLTFGGGTKVEIKRAAADKTHTCPPCPAPPVAGPSVFLFPPKPKDTLMISRTPEVTCVVVDVSHEDPEVKFNWYVDGVEVHNAKTKPREEQYNSTYRVVSVLTVLHQDWLNGKEYKCKVSNKGLPSSIEKTISKAKGQPREPSVFPLAPSSKSTSGGTAALGCLVKDYFPSDIAVEWESGALTSGVHTFPAVLQSSGLYSLSSVVTVPSSSLGTQTYSCSVMHEALHNHYTQKSVEPKSC
chain 2: DIQMTQSPSSLSASVGDRVTITCRASQDIRNYLNWYQQKPGKAPKLLIYYTSRLHSGVPSRFSGSGSGTDFTFTISSLQPEDIATYYCQQGNTLPWTFGQGTKLEIKRGGGGSGGGGSGGGGSQVQLVQSGAEVKKPGSSVKVSCKASGGTFSGYTMNWVRQAPGQGLEWMGLINPYKGVSTYNGKFKDRVTITADKSTSTAYMELSSLRSEDTAVYYCARSGYYGDSDWYFDVWGQGTLVTVSSSGGGSGGGGSDKTHTCPPCPAPPVAGPSVFLFPPKPKDTLMISRTPEVTCVVVDVSHEDPEVKFNWYVDGVEVHNAKTKPREEQYNSTYRVVSVLTVLHQDWLNGKEYKCKVSNKGLPSSIEKTISKAKGQPREPSVFIFPPSDEQLKSGTASVVCLVNNFYPRDIAVEWEVDNALQSGNSQESVTEQDSKDSTYSLSSTLTLSKADYEKHKVYSCSVMHEALHNHYTQKSFNRGECGGGGSGGGGSGGGGSGTGGSGG
Q: For B2, which “Cytotxicity IC50” value [1] is on record?
A: 0.2 nM

B3: Her3N-CD3N-hFc1k (bispecific antibody)
chain 1: B1 chain 1
chain 2: B2 chain 2
notes: also called scFv3-43-CD3-Hinge-Fc1k
Q: With B3 as the binder, how does the EC50 (Her3-Fc fusion protein) read?
A: 1 nM

B4: Fv13.7-Fc1k (Fc fusion)
chain 1: HVQLVQSGAEVKKPGSSVKVSCKASGYTFTDFYINWVRQAPGQGLEWIGEIVPSQGEAKYNDKFKARVTITADKSTSTAYMELSSLRSEDTAVYYCARWDFLDYWGQGTTVTVSSGTGGGSGPSVFLFPPKPKDTLMISRTPEVTCVVVDVSHEDPEVKFNWYVDGVEVHNAKTKPREEQYNSTYRVVSVLTVLHQDWLNGKEYKCKVSNKGLPSSIEKTISKAKGQPREPSVFPLAPSSKSTSGGTAALGCLVKDYFPSDIAVEWESGALTSGVHTFPAVLQSSGLYSLSSVVTVPSSSLGTQTYSCSVMHEALHNHYTQKSVEPKSC
chain 2: DVQMTQSPSSLSASVGDRVTITCRSSQSLLHSNGNTYLHWYQQKPGKAPKLLIYTVSNRFSGVPSRFSGSGSGTDFTLTISSLQPEDFATYYCSQSTHVPYTFGGGTKVEIKGTGGGSGPSVFLFPPKPKDTLMISRTPEVTCVVVDVSHEDPEVKFNWYVDGVEVHNAKTKPREEQYNSTYRVVSVLTVLHQDWLNGKEYKCKVSNKGLPSSIEKTISKAKGQPREPSVFIFPPSDEQLKSGTASVVCLVNNFYPRDIAVEWEVDNALQSGNSQESVTEQDSKDSTYSLSSTLTLSKADYEKHKVYSCSVMHEALHNHYTQKSFNRGEC
Q: How did the “IL-8 Inhibition IC50” value [2] turn out when B4 was run?
A: 39.7 nM

Q: What about the “factor of increased inhibitory potential (IL-8 inhibition) compared to ATROSAB” value [3] of the same binder?
A: 2.5 fold

Q: And the “fold reduced bioactivity (IL-8 inhibition) compared to Fab13.7” value [3]?
A: 1.5 fold

Q: What about the EC50 [4] of the same binder?
A: 1.18 nM

Q: What about the “fold reduced binding affinity compared with Fab13.7” value [5] of the same binder?
A: 1.9 fold

B5: Fab13.7 (Fab, V domains shown)
VH: HVQLVQSGAEVKKPGSSVKVSCKASGYTFTDFYINWVRQAPGQGLEWIGEIVPSQGEAKYNDKFKARVTITADKSTSTAYMELSSLRSEDTAVYYCARWDFLDYWGQGTTVTVSS
VL: DVQMTQSPSSLSASVGDRVTITCRSSQSLLHSNGNTYLHWYQQKPGKAPKLLIYTVSNRFSGVPSRFSGSGSGTDFTLTISSLQPEDFATYYCSQSTHVPYTFGGGTKVEIK
notes: Monovalent anti-human TNFR1 control Fab; Its variable domains are those used in Fv13.7-Fc1k and Fv13.7x-Fc1k
Q: Which results are given for B5?
A: IC50, Cell death induction [nM] (Kym-1 cells, 0.01 nM TNF) [6]: 9.5 nM; IC50, IL-6 [nM] (HeLa cells, 0.1 nM TNF) [6]: 37.1 nM; IC50, IL-8 [nM] (HT1080 cells, 0.1 nM TNF) [6]: 12.7 nM; EC50 [7]: 0.9 nM; IL-8 Inhibition IC50 [2]: 26.3 nM; IL-8 Inhibition IC50 [8]: 13 nM; IC50, IL-6 release (HeLa cells) [3]: 31.7 nM; EC50 [4]: 0.61 nM; EC50 [9]: 0.17 nM
